Results: the RNAGym collection of RNA variant scans (doi:10.1073/pnas.2313332121)
Variants at the floor of the assay were thinned out.

B1: TPR 5TU (parent)
chain: GGAUCUUCUCGAUCUAACAAAAAAGACAAAUCUGCCACAAAGCUUGAGAGCAUCUUCGGAUGCAGAGGCGGCAGCCUUCGGUGGCGCGAUAGCGCCAACGUUCUCAACUAUGACACGCAAAACGCGUGCUCCGUUGAAUGGAGUUUAUCAUG

Variants of: B1
Test: polymerase ribozyme fitness, log enrichment relative to wild type (log ratio); higher = more active; in vitro selection for triplet polymerase activity
Outline: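 The heterodimeric triplet polymerase ribozyme's subunits were each mutagenized into PCR-built libraries and transcribed. Every library was selected once, in triplicate, by annealing with a biotinylated primer, the partner subunit and triplets, incubating frozen at −7 °C, gel-excising extended constructs, capturing on streptavidin beads and running RT-PCR. Input and output libraries were Illumina-sequenced, with genotypes kept only at ≥10 input reads and ≥1 read per output. Fitness, from inverse-variance-weighted replicate averages, is the base-2 logarithm of genotype enrichment over wild-type enrichment.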

First: GGAUCUUCUCGAUCUAACAAAAAAGACAAAUCUGCCACAAAGCUUGAGAGCUACUUCGGAUGCAGAGGCGGCAGCCUUCGGUGGCGCGAUAGCGCCAACGGUCUCAACUAUGACACGCAAAACGCGUGCUCCGUUGAAUGGAGUUUAUCAUG
Second: GGAUCUUCUCGAUCUAACAAAAAAGACAAAUCUGCCACAAAGCUUGAGAGCAACUUCGGAUGCAGAGGCGGCAGCCUUCGGUGGCGCGAUGGCGCCAACGUUCUCAACUAUGACACGCAAAACGCGUGCUCCGUUGAAUGGAGUUUAUCAUG
The “polymerase ribozyme fitness (log ratio)” value of the first is higher: -2.73 for the first, -3.09 for the second.

GGAUCUUCUCGAUCUAACAAAAAAGACAAAUCUGCCACAAAGCUUGAGAGCAACUUCGGAUGCAGAGGCGGCAGCCUUCGGUGGCGCGAUCGCGCUAACGUUCUCAACUAUGACACGCAAAACGCGUGCUCCGUUGAAUGGAGUUUAUCAUG and GGAUCUUCUCGAUCUAACAAAAAAGACAAAUCUGCCACAAAGCUUGAGAGCAACUUCGGAUGCAGAGGCGGCUGCCUUCGGUGGUGCGAUAGCGCCAACGUUCUCAACUAUGACACGCAAAACUCGUGCUCCGCCGAAUGGAGUUUAUCAUG cannot be ordered by “polymerase ribozyme fitness (log ratio)” value: no more than -4.2 for the first, no more than -4.2 for the second.

First: GGAUCUUCUCGAUCUAACAAAAAAGACAAAUCUGCCACAAAGCUUGAGAGCAACUUCGGAUGCAGAGGCGGCAGCCUUCGGUGGCGCGAUAGCGCCAACGUUCUCAACUGUGACACGCAAAACGCGUGCUCCGUUGAAUGGAGUUUAUCAUG
Second: GGAUCUUCUCGAUCUAACAAAAAAGACAAAUCUGCCACAAAGCUUGAGAGCUUCUUCGGAUGCAGAGGCGGCAGCCUUCGGCGGCGCGAUAUCGCCAACGUUCUCAACUAUGACAGGCAAUACGCGUGCUCCGUUGAAUGGAGUUUAUCAUG
The “polymerase ribozyme fitness (log ratio)” value of the first is lower: -3.7 for the first, -3.06 for the second.

First: GGAUCUUCUCGAUCUAACAAAAAAGACAAAUCUGCCACAAAGCUUGAGAGCUUCGUCGGAUGCAGAGGCGGCAGCUUUCGGUGGCGCGAUAGCGCCAACGUUCUCAACUAUGACACGCAAAACGCGUGCUCCGUUGAAUGGAGUUUAUCAUG
Second: GGAUCUUCUCGAUCUAACAAAAAAGACAAAUCUGCCACAAAGCUUGAGAGCAACUUCGGAUGCAGAGGCGGCAGCCUUCGGUGGCGCGAUCGCGCCAACGCUCUCAACUAUGACACGCAAAACGCGUGCUCCGUUGAAUGGAGUUUAUCAUG
The “polymerase ribozyme fitness (log ratio)” value of the first is higher: -4.08 for the first, no more than -4.2 for the second.

GGAUCUUCUCGAUCUAACAAAAAAGACAAAUCUGCCACAAAGCUUGAGAGCAACUUCGGAUGCGGAGGCGGCAGCCUUCGGUGGCGCGAUAGCGCCAACGUUGUCAACUAUGACACGCAAAACACGUGCUCCGUUGAAUGGAGUUUAUCAUG and GGAUCUUCUCGAUCUAACAAAAAAGACAAAUCUGCCACAAAGCUUGAGAGCUUCUUCGGAUGCAGAGGCGGCAGCCUUCGGUGGCGCGAUAGCGCCAACGUUCUCAACUAUGACACGCAAAACGCGUGCUCCGUUGAAUGGAGUUUACCAUG cannot be ordered by “polymerase ribozyme fitness (log ratio)” value: no more than -4.2 for the first, no more than -4.2 for the second.

Going from GGAUCUUCUCGAUCUAACAAAAAAGACAAAUCUGCCACAAAGCUUGAGAGCAACUUCGGAUGCAGAGGCGGCAGCCUUCGGUGGCGCGAUGGCGCCAACGUUCUCAACUAUGACACGCAAAACGCGUGCUCCGUUGAAUGGAGGUUAUCAUG to GGAUCUUCUCGAUCUAACAAAAAAGACAAAUCUGCCACAAAGCUUGAGAGCUUCGUCGGAUGCAGAGGCGGCAGCCUUCGGUGGCGAGAUAGCGCCAACGUUCUCAACUAUGACACGCUAAACGCGUGCUCCGUUGAAUGGAGUUUAUCAUG, the “polymerase ribozyme fitness (log ratio)” value falls from -2.54 to no more than -4.2.

GGAUCUUCUCGAUCUAACAAAAAAGACAAAUCUGCCACAAAGCUUGAGAGCUUCAUCGGAUGCAGAGGCGGCAGCCUUCGGUGGCGGGAUAGCGCCAACGUUCUCAACUAUGACACGCAAAACGCGUGCUCCGUUGAAUGGAGUUUAUCAUG and GGAUCUUCUCGAUCUAACAAAAAAGACAAAUCUGCCACAAAGCUUGAGAGCAACUUCGGUUGCAGAGGCGGCAGCCCUCCGUGGCGCGAUGGCGCCAACGUUCUCAACUAUGACACGCAAAACGCGUGCUCCGUUGAAUGGCGUUUAUCAUG cannot be ordered by “polymerase ribozyme fitness (log ratio)” value: no more than -4.2 for the first, no more than -4.2 for the second.

Going from GGAUCUUCUCGAUCUAACAAAAAAGACAAAUCUGCCACAAAGCUUGAGAGCUUCUUCGGAUGCAGAGGCGGCAGCCUUCGGGGGCGCGAUAGCGCCAACGUUCUCAACUAUGACACGCAAAACGCGUGCUCCGUUGAAUGGAGUUUAUCAUG to GGAUCUUCUCGAUCUAACAAAAAAGACAAAUCUGCCACAAAGCUUGAGAGCAACUUCGGAUGCAGAGGCGGCGGCCUCCGGUGGCGCGAUAGCGCCAACGUUCUCAACUAUGACACGCAAAACGCGUGCUCCAUUGAAUGGAGUUUAUCAUG, the “polymerase ribozyme fitness (log ratio)” value falls from -1.46 to no more than -4.2.

GGAUCUUCUCGAUCUAACAAAAAAGACAAAUCUGCCACAAAGCUUGAGAGCAACUUCGGAUGCAGAGGCGGCAGCCUUCGGUGGCGCGAUAGCGCCAACGUUCUCAACUAUGACACGCAAAGCGCGUGCUCCGUUGAAUGGAGUUUAUCAUG and GGAUCUUCUCGAUCUAACAAAAAAGACAAAUCUGCCACAAAGCUUGAGAGCAACUUCGGAUGCAGAGGCGGCAGCCUUCGGUGGCGCGCUAGCGCCAACGUUCUCAACUAUGACACGCAAAACGCGUGCUCCGUUGAAUGGAGUUUAUCAUG are within 0.2 log units of each other in “polymerase ribozyme fitness (log ratio)” value: -0.748 for the first, -0.605 for the second.

In the case of GGAUCUUCUCGAUCUAACAAAAAAGACAAAUCUGCCACAAAGCUUGAGAGCAACUUCGGAUGCAGAGGCGGCAGCCUUCGGUGGCGCGAUAGCGCCAACGUUCUCAACUAUGACACGCAAAUCGCGUGCUCCGUUGAUUGGAGUUUAUCAUG, the “polymerase ribozyme fitness (log ratio)” value is reported as -4.07.
